The record followed here is PMC4288179, “Synergic interplay of the La motif, RRM1 and the interdomain linker of LARP6 in the recognition of collagen mRNA expands the RNA binding repertoire of the La module”.

By Kd is commonly meant the concentration at which binding is half-saturated.

Holding throughout (assay): ITC; ITC: 20 mM Tris pH 7.25, 100 mM KCl, 5 mM MgCl2, 1 mM DTT, 298 K; protein titrated into RNA
Holding throughout (conditions): protein: recombinant; tags: N-terminal His6 (TEV-cleavable); stem-loop with internal bulge
(In general: In ITC the heat of successive injections is recorded.)

One data set deals with T1, HsLARP6(70-300) R231A (Homo sapiens, UniProt Q9BRS8 70-300, R231A).
T1 sequence: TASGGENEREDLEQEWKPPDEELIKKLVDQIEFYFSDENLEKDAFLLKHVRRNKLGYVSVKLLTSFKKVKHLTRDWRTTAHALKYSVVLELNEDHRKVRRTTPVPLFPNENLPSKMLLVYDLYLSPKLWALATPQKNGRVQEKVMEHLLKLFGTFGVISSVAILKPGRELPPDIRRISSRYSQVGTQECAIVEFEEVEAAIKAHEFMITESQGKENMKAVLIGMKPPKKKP

In the next data set the target is T2, HsLARP6(70-300) F114A (Homo sapiens, UniProt Q9BRS8 70-300, F114A).
T2 sequence: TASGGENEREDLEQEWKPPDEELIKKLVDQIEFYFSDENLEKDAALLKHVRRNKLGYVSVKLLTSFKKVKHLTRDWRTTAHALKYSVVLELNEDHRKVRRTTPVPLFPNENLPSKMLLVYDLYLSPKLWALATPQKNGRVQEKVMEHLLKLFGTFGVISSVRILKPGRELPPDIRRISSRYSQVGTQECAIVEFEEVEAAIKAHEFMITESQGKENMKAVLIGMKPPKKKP

A further data set concerns the target T3, Loop1 chimera (Homo sapiens, UniProt Q9BRS8 70-189+P05455:116-122+209-300, internal_change).
T3 sequence: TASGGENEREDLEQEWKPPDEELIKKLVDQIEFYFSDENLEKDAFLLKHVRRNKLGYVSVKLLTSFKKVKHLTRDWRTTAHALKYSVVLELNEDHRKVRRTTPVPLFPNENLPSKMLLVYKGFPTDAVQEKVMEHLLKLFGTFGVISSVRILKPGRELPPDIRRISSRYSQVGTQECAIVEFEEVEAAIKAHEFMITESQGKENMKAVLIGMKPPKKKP

For the next data set, the target named is T4, HsLARP6(70-300) F135A (Homo sapiens, UniProt Q9BRS8 70-300, F135A).
T4 sequence: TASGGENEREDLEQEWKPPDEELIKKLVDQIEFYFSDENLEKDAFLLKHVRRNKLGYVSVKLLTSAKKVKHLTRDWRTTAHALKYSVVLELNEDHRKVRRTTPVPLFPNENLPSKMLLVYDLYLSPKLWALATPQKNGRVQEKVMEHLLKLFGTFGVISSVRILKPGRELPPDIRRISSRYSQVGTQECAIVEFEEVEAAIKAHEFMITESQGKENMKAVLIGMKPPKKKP

The target in the next data set is T5, HsLARP6(70-300) Q99A (Homo sapiens, UniProt Q9BRS8 70-300, Q99A).
T5 sequence: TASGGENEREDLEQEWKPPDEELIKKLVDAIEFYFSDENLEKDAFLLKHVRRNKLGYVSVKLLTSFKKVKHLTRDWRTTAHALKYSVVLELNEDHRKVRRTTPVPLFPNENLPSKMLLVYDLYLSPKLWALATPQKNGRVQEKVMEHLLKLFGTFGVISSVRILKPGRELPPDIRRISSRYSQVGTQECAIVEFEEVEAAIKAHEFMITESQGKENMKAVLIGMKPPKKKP

A further data set addresses T6, HsLARP6(70-300) R245A (Homo sapiens, UniProt Q9BRS8 70-300, R245A).
T6 sequence: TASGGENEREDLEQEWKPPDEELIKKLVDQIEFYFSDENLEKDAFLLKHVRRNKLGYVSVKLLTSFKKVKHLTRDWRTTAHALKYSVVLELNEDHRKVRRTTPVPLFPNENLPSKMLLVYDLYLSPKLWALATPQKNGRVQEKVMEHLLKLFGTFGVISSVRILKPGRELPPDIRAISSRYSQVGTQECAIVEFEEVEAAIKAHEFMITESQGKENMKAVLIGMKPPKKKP

A further data set concerns the target T7, HsLARP6 LaM (70-183) (Homo sapiens, UniProt Q9BRS8 70-183).
T7 sequence: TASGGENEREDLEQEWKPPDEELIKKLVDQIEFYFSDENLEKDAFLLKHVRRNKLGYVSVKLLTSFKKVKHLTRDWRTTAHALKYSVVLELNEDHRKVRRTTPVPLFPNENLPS

The next data set concerns the target T8, HsLARP6(70-300) N180R (Homo sapiens, UniProt Q9BRS8 70-300, N180R).
T8 sequence: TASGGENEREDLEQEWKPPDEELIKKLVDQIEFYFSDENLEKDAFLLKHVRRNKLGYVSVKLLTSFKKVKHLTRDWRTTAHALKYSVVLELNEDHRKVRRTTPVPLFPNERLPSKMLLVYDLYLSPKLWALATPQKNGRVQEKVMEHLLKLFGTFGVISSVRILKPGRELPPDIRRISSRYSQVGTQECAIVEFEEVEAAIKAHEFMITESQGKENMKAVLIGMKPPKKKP

As for CCACAAAGAGUCUACAUGUCUAGGGUCUAGACAUGUUCAGCUUUGUGG (structured_RNA) [48 nt RNA (collagen alpha1(I) 5' UTR SL)], the Kd with HsLARP6(70-300) R231A is 0.02 µM; in the data set with Loop1 chimera, 0.018 µM; with HsLARP6(70-300) R245A, 0.036 µM; in the data set with HsLARP6(70-300) N180R it was 0.032 µM. The binding result with HsLARP6(70-300) F114A, with HsLARP6(70-300) F135A, in the data set with HsLARP6(70-300) Q99A and with HsLARP6 LaM (70-183) was “no binding” throughout.
